Changes are numbered by the printed parent chain. In names and notes the source's numbering stands.
Test system: engineered chimeric receptor SEQ ID NO: 33 and its mutants (human α7-nAChR ligand binding domain / human GlyRα1 ion pore domain) in Lenti-X 293T cells
Experiment: YFP fluorescence quenching anion reporter plate reader assay (percent quench, EC50)
Assay type: cell-based
Conditions: for YFP fluorescence quenching using CNL001 (percent quench): receptor named in row; for YFP fluorescence quenching using Varenicline, 3 nM var: ligand Varenicline 3 nM; for YFP fluorescence quenching using Varenicline, 30 nM var: ligand Varenicline 30 nM; for YFP fluorescence quenching using Varenicline, 300 nM var: ligand Varenicline 300 nM; for YFP fluorescence quenching using Varenicline, 500 nM var: ligand Varenicline 500 nM; for YFP fluorescence quenching using Varenicline, 1 uM var: ligand Varenicline 1 uM
Procedure, shortened: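 Lenti-X 293T cells co-expressing an anion-quenchable YFP were transiently transfected with receptor DNA, then ligand was added in NaI-substituted buffer (pH 7.2) after 30 min at 37 °C. Fluorescence was read about 2 min; percent quench = mean of last 10 s over 15 s pre-ligand baseline.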

[1] = 1 nM CNL001, first column so headed
[2] = 1 nM CNL001, second column so headed
[3] = 10 nM CNL001, first column so headed
[4] = 10 nM CNL001, second column so headed
[5] = 50 nM CNL001, first column so headed
[6] = 50 nM CNL001, second column so headed
[7] = 100 nM CNL001, first column so headed
[8] = 100 nM CNL001, second column so headed
[9] = 1 uM CNL001, first column so headed
[10] = 1 uM CNL001, second column so headed

B1: CODA75: non-responding chimeric engineered receptor used as the negative control (protein)
chain: MRCSPGGVWLALAASLLHVSLQGEFQRKLYKELVKNYNPLERPVANDSQPLTVYFSLSLLQIMDVDEKNQVLTTNIWLQMSWTDHYLQWNVSEYPGVKTVRFPDGQIWKPDILLYNSADERFDATFHTNVLVNSSGHCQYLPPGIFKSSCYIDVRWFPFDVQHCKLKFGSWSYGGWSLDLQMQEADISGYIPNGEWDLVGIPGKRSERFYECCKEPYPDVTFTVTMRRRTGYYLIQMYIPSLLIVILSWISFWINMDAAPARVGLGITTVLTMTTQSSGSEIMPATSDSVPLIAQAIDIWMAVCLLFVFSALLEYAAVNFVSRQHKELLRFRRKRRHHKSPMLNLFQEDEAGEGRFNFSAYGMGPACLQAKDGISVKGANNSNTTNPPPAPSKSPEEMRKLFIQRAKKIDKISRIGFPMAFLIFNMFYWIIYKIVRREDVHNQ
modifications: synthetic sequence of chimeric LGIC
notes: non-responding chimeric engineered receptor used as the negative control
YFP fluorescence quenching using CNL001 (percent quench) [1]: −8.496%
YFP fluorescence quenching using CNL001 (percent quench) [2]: −2.266%
YFP fluorescence quenching using TC-5619/Bradanicline (percent quench) (1 nM brd (TC-5619/Bradanicline)): −13.39%
YFP fluorescence quenching using TC-5619/Bradanicline (percent quench) (3 nM brd (TC-5619/Bradanicline)): −15.78%
YFP fluorescence quenching using CNL001 (percent quench) [3]: 1.816%
YFP fluorescence quenching using CNL001 (percent quench) [4]: −4.649%
YFP fluorescence quenching using TC-5619/Bradanicline (percent quench) (10 nM brd (TC-5619/Bradanicline)): −13.47%
YFP fluorescence quenching using TC-5619/Bradanicline (percent quench) (30 nM brd (TC-5619/Bradanicline)): −16.41%
YFP fluorescence quenching using CNL001 (percent quench) [5]: −5.922%
YFP fluorescence quenching using CNL001 (percent quench) [6]: −5.597%
YFP fluorescence quenching using ABT-126 (percent quench) (50 nM abt (ABT-126)): −17.07%
YFP fluorescence quenching using CNL001 (percent quench) [7]: −8.159%
YFP fluorescence quenching using CNL001 (percent quench) [8]: −5.058%
YFP fluorescence quenching (percent quench) (100 nM CNL002): −7.94%
YFP fluorescence quenching using ABT-126 (percent quench) (100 nM abt (ABT-126)): −16.76%
YFP fluorescence quenching using AZD-0328 (percent quench) (100 nM azd0328): −8.83%
YFP fluorescence quenching using ABT-126 (percent quench) (300 nM abt (ABT-126)): −16.76%
YFP fluorescence quenching using AZD-0328 (percent quench) (300 nM azd0328): −11.15%
YFP fluorescence quenching using TC-5619/Bradanicline (percent quench) (300 nM brd (TC-5619/Bradanicline)): −17.56%
YFP fluorescence quenching using ABT-126 (percent quench) (500 nM abt (ABT-126)): −14.68%
YFP fluorescence quenching using CNL001 (percent quench) [9]: −4.272%
YFP fluorescence quenching using CNL001 (percent quench) [10]: −1.281%
YFP fluorescence quenching (percent quench) (1 uM CNL002): −9.81%
YFP fluorescence quenching using ABT-126 (percent quench) (1 uM abt (ABT-126)): −16%
YFP fluorescence quenching using ABT-126 (percent quench) (3 uM abt (ABT-126)): −14.11%
YFP fluorescence quenching using ABT-126 (percent quench) (10 uM abt (ABT-126)): −13.98%
YFP fluorescence quenching (percent quench) (10 uM ach (acetylcholine)): −12.88%
YFP fluorescence quenching (percent quench) (30 uM CNL002): −15.27%
YFP fluorescence quenching using ABT-126 (percent quench) (30 uM abt (ABT-126)): −21.05%
YFP fluorescence quenching (percent quench) (30 uM ach (acetylcholine)): −18.67%
YFP fluorescence quenching using AZD-0328 (percent quench) (30 uM azd0328): −11.92%
YFP fluorescence quenching using ABT-126 (percent quench) (50 uM abt (ABT-126)): −21.35%
YFP fluorescence quenching (percent quench) (50 uM ach (acetylcholine)): −0.29%
YFP fluorescence quenching using ABT-126 (percent quench) (100 uM abt (ABT-126)): −24.12%
YFP fluorescence quenching (percent quench) (100 uM ach (acetylcholine)): −14.46%
YFP fluorescence quenching (percent quench) (300 uM ach (acetylcholine)): −16.31%
YFP fluorescence quenching (percent quench) (500 uM ach (acetylcholine)): −17.41%
YFP fluorescence quenching (percent quench) (1 mM ach (acetylcholine)): −16.46%
YFP fluorescence quenching (percent quench) (3 mM ach (acetylcholine)): −12.38%
YFP fluorescence quenching (percent quench) (5 mM ach (acetylcholine)): −20.88%
YFP fluorescence quenching (percent quench) (10 mM ach (acetylcholine)): −8.69%
YFP fluorescence quenching using Facinicline, 30 nM fac (ligand Facinicline 30 nM): −11.68
YFP fluorescence quenching using Facinicline, 100 nM fac (ligand Facinicline 100 nM): 4.35
YFP fluorescence quenching using Facinicline, 300 nM fac (ligand Facinicline 300 nM): −10.55
YFP fluorescence quenching using Facinicline, 30 uM fac (ligand Facinicline 30 uM): −5.25
YFP fluorescence quenching using TC-6987, 1 uM tc6987 (ligand TC-6987 1 uM): −11.79
YFP fluorescence quenching using TC-6987, 10 uM tc6987 (ligand TC-6987 10 uM): −14.31
YFP fluorescence quenching using TC-6987, 500 uM tc6987 (ligand TC-6987 500 uM): −19.65
YFP fluorescence quenching using Varenicline, 3 nM var (first column): 4.161
YFP fluorescence quenching using Varenicline, 3 nM var (second column): −6.216
YFP fluorescence quenching using Varenicline, 30 nM var (first column): −5.173
YFP fluorescence quenching using Varenicline, 30 nM var (second column): −6.593
YFP fluorescence quenching using Varenicline, 300 nM var (first column): −5.733
YFP fluorescence quenching using Varenicline, 300 nM var (second column): −7.312
YFP fluorescence quenching using Varenicline, 500 nM var (first column): −10.35
YFP fluorescence quenching using Varenicline, 500 nM var (second column): −7.586
YFP fluorescence quenching using Varenicline, 1 uM var (first column): −5.637
YFP fluorescence quenching using Varenicline, 1 uM var (second column): −3.757

B2: CODA1157: engineered receptor: Q139E, S172D in SEQ ID NO: 33 (protein)
chain: MRCSPGGVWLALAASLLHVSLQGEFQRKLYKELVKNYNPLERPVANDSQPLTVYFSLSLLQIMDVDEKNQVLTTNIWLQMSWTDHYLQWNVSEYPGVKTVRFPDGQIWKPDILLYNSADERFDATFHTNVLVNSSGHCEYLPPGIFKSSCPMDLKNFPMDVQTCKLKFGSWDYGGWSLDLQMQEADISGYIPNGEWDLVGIPGKRSERFYECCKEPYPDVTFTVTMRRRMGYYLIQMYIPSLLIVILSWISFWINMDAAPARVGLGITTVLTMTTQSSGSRASLPKVSYVKAIDIWMAVCLLFVFSALLEYAAVNFVSRQHKELLRFRRKRRHHKSPMLNLFQEDEAGEGRFNFSAYGMGPACLQAKDGISVKGANNSNTTNPPPAPSKSPEEMRKLFIQRAKKIDKISRIGFPMAFLIFNMFYWIIYKIVRREDVHNQ
modifications: synthetic sequence of chimeric LGIC
YFP fluorescence quenching using CNL001 (percent quench) [1]: 68.362%
YFP fluorescence quenching using CNL001 (percent quench) [2]: 69.495%
YFP fluorescence quenching using CNL001 (percent quench) [3]: 75.078%
YFP fluorescence quenching using CNL001 (percent quench) [4]: 74.193%
YFP fluorescence quenching using CNL001 (percent quench) [5]: 77.481%
YFP fluorescence quenching using CNL001 (percent quench) [6]: 77.205%
YFP fluorescence quenching using ABT-126 (percent quench) (50 nM abt (ABT-126)): −26.77%
YFP fluorescence quenching using CNL001 (percent quench) [7]: 77%
YFP fluorescence quenching using CNL001 (percent quench) [8]: 77.042%
YFP fluorescence quenching (percent quench) (100 nM CNL002): 80.62%
YFP fluorescence quenching using ABT-126 (percent quench) (100 nM abt (ABT-126)): −24.64%
YFP fluorescence quenching using ABT-126 (percent quench) (300 nM abt (ABT-126)): −10.64%
YFP fluorescence quenching using CNL001 (percent quench) [9]: 78.2%
YFP fluorescence quenching using CNL001 (percent quench) [10]: 76.244%
YFP fluorescence quenching (percent quench) (1 uM CNL002): 81.32%
YFP fluorescence quenching using ABT-126 (percent quench) (1 uM abt (ABT-126)): 19.57%
YFP fluorescence quenching using ABT-126 (percent quench) (10 uM abt (ABT-126)): 55.64%
YFP fluorescence quenching (percent quench) (10 uM ach (acetylcholine)): −36.89%
YFP fluorescence quenching (percent quench) (30 uM ach (acetylcholine)): −37.78%
YFP fluorescence quenching (percent quench) (100 uM ach (acetylcholine)): −25.67%
YFP fluorescence quenching (percent quench) (300 uM ach (acetylcholine)): −18.94%
YFP fluorescence quenching (percent quench) (1 mM ach (acetylcholine)): 16.38%
YFP fluorescence quenching (percent quench) (3 mM ach (acetylcholine)): 45.71%
YFP fluorescence quenching using Varenicline, 3 nM var (first column): −0.225
YFP fluorescence quenching using Varenicline, 3 nM var (second column): −1.954
YFP fluorescence quenching using Varenicline, 30 nM var (first column): 1.269
YFP fluorescence quenching using Varenicline, 30 nM var (second column): 5.972
YFP fluorescence quenching using Varenicline, 300 nM var (first column): 6.84
YFP fluorescence quenching using Varenicline, 300 nM var (second column): 5.943
YFP fluorescence quenching using Varenicline, 500 nM var (first column): 8.717
YFP fluorescence quenching using Varenicline, 500 nM var (second column): 6.41
YFP fluorescence quenching using Varenicline, 1 uM var (first column): 5.635
YFP fluorescence quenching using Varenicline, 1 uM var (second column): 7.068

B3: CODA1173: engineered receptor: S172D, Y210W in SEQ ID NO: 33 (protein)
chain: B2 chain with E139Q, Y210W
modifications: synthetic sequence of chimeric LGIC
YFP fluorescence quenching using CNL001 (percent quench) [1]: 16.321%
YFP fluorescence quenching using CNL001 (percent quench) [2]: 30.264%
YFP fluorescence quenching using CNL001 (percent quench) [3]: 61.978%
YFP fluorescence quenching using CNL001 (percent quench) [4]: 65.343%
YFP fluorescence quenching using CNL001 (percent quench) [5]: 73.006%
YFP fluorescence quenching using CNL001 (percent quench) [6]: 74.903%
YFP fluorescence quenching using ABT-126 (percent quench) (50 nM abt (ABT-126)): 5.15%
YFP fluorescence quenching using CNL001 (percent quench) [7]: 76%
YFP fluorescence quenching using CNL001 (percent quench) [8]: 76.759%
YFP fluorescence quenching (percent quench) (100 nM CNL002): 70.15%
YFP fluorescence quenching using ABT-126 (percent quench) (100 nM abt (ABT-126)): 25.08%
YFP fluorescence quenching using ABT-126 (percent quench) (300 nM abt (ABT-126)): 66.86%
YFP fluorescence quenching using CNL001 (percent quench) [9]: 76.928%
YFP fluorescence quenching using CNL001 (percent quench) [10]: 76.619%
YFP fluorescence quenching (percent quench) (1 uM CNL002): 77.33%
YFP fluorescence quenching using ABT-126 (percent quench) (1 uM abt (ABT-126)): 66.94%
YFP fluorescence quenching using ABT-126 (percent quench) (10 uM abt (ABT-126)): 78.67%
YFP fluorescence quenching (percent quench) (1 mM ach (acetylcholine)): −6.12%
YFP fluorescence quenching (percent quench) (3 mM ach (acetylcholine)): 11.31%
YFP fluorescence quenching using Varenicline, 3 nM var (first column): 9.211
YFP fluorescence quenching using Varenicline, 3 nM var (second column): 7.193
YFP fluorescence quenching using Varenicline, 30 nM var (first column): 7.821
YFP fluorescence quenching using Varenicline, 30 nM var (second column): 9.078
YFP fluorescence quenching using Varenicline, 300 nM var (first column): 6.933
YFP fluorescence quenching using Varenicline, 300 nM var (second column): 8.36
YFP fluorescence quenching using Varenicline, 500 nM var (first column): 5.501
YFP fluorescence quenching using Varenicline, 500 nM var (second column): 7.04
YFP fluorescence quenching using Varenicline, 1 uM var (first column): 7.174
YFP fluorescence quenching using Varenicline, 1 uM var (second column): 5.185

From patent US20250152742A1, “COMPOSITIONS AND METHODS FOR NEUROLOGICAL DISEASES” (Trames Bio, Inc., priority 2022, published 2025)
